The values that follow are results of earlier work, collected in publication PMC7290323.

In the series the target is GPP130 luminal domain (Homo sapiens) (UniProt O00461).
UniProt O00461, sequence (O00461 34-696): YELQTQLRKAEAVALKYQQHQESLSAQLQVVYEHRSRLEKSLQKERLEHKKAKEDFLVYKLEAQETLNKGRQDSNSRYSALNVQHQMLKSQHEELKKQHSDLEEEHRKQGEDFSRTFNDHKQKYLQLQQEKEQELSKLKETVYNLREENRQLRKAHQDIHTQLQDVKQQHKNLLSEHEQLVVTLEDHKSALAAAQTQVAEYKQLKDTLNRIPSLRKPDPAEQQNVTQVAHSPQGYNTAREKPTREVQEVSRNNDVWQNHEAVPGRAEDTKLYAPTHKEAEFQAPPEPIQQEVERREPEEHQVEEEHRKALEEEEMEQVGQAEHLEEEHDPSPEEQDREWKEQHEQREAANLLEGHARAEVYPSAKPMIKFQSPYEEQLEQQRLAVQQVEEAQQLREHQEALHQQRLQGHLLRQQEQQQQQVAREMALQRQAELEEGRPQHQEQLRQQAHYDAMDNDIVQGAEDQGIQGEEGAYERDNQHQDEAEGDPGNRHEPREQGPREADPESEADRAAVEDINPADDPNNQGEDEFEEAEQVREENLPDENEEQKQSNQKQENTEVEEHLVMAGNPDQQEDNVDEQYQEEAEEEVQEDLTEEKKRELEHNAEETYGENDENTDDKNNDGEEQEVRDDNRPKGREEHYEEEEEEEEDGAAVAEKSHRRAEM

Turning to “Shiga toxin 1 B subunit (STxB/STx1B) (from UniProt Q32GM0)”, the Kd (commonly the constant that tells how readily two partners part at equilibrium) was 150 nM.
